Experimental data reported in patent US7838231 (REGENTS OF THE UNIVERSITY OF MICHIGAN, dated 2010).

Assays:
Experiment in all cases: direct yeast two-hybrid assay
[1] = target: T1, BBS7, human full length, yeast two-hybrid prey (human, UniProt Q8IWZ6 1-715)
T1 sequence (looked up): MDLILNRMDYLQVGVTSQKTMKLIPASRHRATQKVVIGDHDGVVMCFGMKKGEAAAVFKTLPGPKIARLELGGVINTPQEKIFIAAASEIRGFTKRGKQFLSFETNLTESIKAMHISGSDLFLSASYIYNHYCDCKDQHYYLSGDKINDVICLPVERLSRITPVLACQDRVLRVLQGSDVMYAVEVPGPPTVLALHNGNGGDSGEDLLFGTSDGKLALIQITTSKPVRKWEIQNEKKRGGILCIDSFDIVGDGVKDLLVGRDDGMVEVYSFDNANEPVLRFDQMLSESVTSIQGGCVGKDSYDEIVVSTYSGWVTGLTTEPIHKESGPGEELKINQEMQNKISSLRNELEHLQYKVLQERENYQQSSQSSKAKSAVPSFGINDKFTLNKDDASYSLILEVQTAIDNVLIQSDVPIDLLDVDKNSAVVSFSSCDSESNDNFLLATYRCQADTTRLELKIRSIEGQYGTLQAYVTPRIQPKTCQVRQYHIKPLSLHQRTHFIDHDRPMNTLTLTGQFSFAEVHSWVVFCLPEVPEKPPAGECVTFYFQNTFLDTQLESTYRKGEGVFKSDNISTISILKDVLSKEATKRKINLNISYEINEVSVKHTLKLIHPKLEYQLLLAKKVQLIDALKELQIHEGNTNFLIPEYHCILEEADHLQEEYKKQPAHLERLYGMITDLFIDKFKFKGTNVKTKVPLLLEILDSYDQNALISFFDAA

[2] = target: T2, KIF3A, yeast two-hybrid construct (UniProt Q9Y496 1-699)
T2 construct: The construct is not described in the methods; not shown: GAL4 domain of the two-hybrid vector; not described for this construct

[3] = target: T3, inversin (NPHP2), human full length, yeast two-hybrid prey (human, UniProt Q9Y283 1-1065)
T3 construct: also called INVS
T3 sequence: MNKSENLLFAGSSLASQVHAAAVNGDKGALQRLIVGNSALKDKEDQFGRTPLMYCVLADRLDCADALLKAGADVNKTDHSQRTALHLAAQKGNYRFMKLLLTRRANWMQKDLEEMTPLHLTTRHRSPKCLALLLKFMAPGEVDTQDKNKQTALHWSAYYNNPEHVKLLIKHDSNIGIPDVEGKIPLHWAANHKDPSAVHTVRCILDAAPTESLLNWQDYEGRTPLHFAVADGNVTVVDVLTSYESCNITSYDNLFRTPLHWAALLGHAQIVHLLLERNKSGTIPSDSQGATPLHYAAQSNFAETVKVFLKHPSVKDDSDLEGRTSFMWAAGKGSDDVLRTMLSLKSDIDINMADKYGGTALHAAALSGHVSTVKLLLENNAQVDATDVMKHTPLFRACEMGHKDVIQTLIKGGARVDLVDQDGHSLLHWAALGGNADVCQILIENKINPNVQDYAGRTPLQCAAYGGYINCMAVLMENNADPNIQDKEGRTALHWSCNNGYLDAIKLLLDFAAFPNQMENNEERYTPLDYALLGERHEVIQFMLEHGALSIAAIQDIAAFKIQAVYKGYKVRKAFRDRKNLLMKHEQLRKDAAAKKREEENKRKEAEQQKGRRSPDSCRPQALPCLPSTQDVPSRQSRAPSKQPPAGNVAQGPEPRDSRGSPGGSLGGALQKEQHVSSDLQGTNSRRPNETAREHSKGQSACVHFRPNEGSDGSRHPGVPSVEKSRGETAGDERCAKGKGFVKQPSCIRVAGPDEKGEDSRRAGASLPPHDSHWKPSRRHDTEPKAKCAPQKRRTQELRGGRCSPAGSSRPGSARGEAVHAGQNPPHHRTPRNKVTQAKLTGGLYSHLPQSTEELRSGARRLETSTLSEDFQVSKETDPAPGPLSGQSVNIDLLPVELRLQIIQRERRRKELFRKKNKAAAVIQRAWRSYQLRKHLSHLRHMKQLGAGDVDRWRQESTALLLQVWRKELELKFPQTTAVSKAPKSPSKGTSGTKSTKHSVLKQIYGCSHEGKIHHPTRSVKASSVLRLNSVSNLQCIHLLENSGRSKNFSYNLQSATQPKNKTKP

T2 sequence (Q9Y496 whole entry, the tested form may be a part): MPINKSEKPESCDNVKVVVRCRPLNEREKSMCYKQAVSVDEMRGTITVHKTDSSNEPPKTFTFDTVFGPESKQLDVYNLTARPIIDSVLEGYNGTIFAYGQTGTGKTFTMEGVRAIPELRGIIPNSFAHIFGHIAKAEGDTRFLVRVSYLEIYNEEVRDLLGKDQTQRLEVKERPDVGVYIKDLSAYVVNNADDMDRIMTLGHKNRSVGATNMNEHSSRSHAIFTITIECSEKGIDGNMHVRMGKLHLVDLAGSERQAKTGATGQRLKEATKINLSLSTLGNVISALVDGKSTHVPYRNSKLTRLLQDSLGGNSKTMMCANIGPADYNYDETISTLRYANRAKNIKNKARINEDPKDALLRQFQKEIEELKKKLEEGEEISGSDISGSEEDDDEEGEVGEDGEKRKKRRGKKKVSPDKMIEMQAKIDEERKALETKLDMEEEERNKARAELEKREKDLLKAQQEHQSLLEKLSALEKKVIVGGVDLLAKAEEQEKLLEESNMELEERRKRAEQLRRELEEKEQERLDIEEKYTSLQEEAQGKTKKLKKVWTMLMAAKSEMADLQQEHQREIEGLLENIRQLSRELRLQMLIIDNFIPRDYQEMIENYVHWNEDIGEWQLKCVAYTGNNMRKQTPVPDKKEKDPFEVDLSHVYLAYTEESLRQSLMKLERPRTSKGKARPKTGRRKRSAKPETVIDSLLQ

binding result [1]: no binding
binding result [2]: no binding
binding result [3]: no binding
B1: full-length human nephrocystin-5 (NPHP5), yeast two-hybrid fusion (other, not shown: small tags and cut ends)
chain: MKPTGTDPRILSIAAEVAKSPEQNVPVILLKLKEIINITPLGSSELKKIKQDIYCYDLIQYCLLVLSQDYSRIQGGWTTISQLTQILSHCCVGLEPGEDAEEFYNELLPSAAENFLVLGRQLQTCFINAAKAEEKDELLHFFQIVTDSLFWLLGGHVELIQNVLQSDHFLHLLQADNVQIGSAVMMMLQNILQINSGDLLRIGRKALYSILDEVIFKLFSTPSPVIRSTATKLLLLMAESHQEILILLRQSTCYKGLRRLLSKQETGTEFSQELRQLVGLLSPMVYQEVEEQKLHQAACLIQAYWKGFQTRKRLKKLPSAVIALQRSFRSKRSKMLLEINRQKEEEDLKLQLQLQRQRAMRLSRELQLSMLEIVHPGQVEKHYREMEEKSALNIQKHWRGYRERKNFHQQRQSLIEYKAAVTLQRAALKFLAKCRKKKKLFAPWRGLQELTDARRVELKKRVDDYVRRHLGSPMSDVVSRELHAQAQERLQHYFMGRALEERAQQHREALIAQISTNVEQLMKAPSLKEAEGKEPELFLSRSRPVAAKAKQAHLTTLKHIQAPWWKKLGEESGDEIDVPKDELSIELENLFIGGTKPP
notes: Full-length NPHP5 cDNA (598 amino acid residues) fused to a GAL4 domain; also called KIAA0036
